Assays:
[1] = target: T1, Human EGFR (immobilized on CM5 sensor chip) (human, UniProt P00533 25-645, limits assumed); test: SPR; construct (200 nM) captured on immobilized human EGFR, then CD3 fusion injected (FIG. 18A)
T1 construct: 8000 RU immobilized by amine coupling; also called Epidermal Growth Factor Receptor
Experimental: (§1) Analysis of simultaneous binding of the T-cell bispecific constructs to the tumor antigen and the human CD3ε was performed by direct coupling of 1650 resonance units (RU) of biotinylated D3 domain of MCSP on a sensor chip SA using the standard coupling procedure. Human EGFR was immobilized using standard amino coupling procedure. 8000 RU were immobilized on a CM5 sensor chip at pH 5.5.
(§2) Different T-cell bispecific constructs were captured for 60 s at 200 nM. Human CD3γ(G₄S)₅CD3ε-AcTev-Fc(knob)-Avi/Fc(hole) was subsequently passed at a concentration of 2000 nM and a flow rate of 40 µl/min for 60 s. Bulk refractive index differences were corrected for by subtracting the response obtained on a reference flow cell where the recombinant CD3ε was flown over a surface with immobilized D3 domain of MCSP or EGFR without captured T-cell bispecific constructs.

[2] = target: T1, Human EGFR (immobilized on CM5 sensor …); test: SPR; construct (200 nM) captured on immobilized human EGFR, then CD3 fusion injected (FIG. 18B)
Experimental: as §1, §2

[3] = target: T1, Human EGFR (immobilized on CM5 sensor …); test: SPR; construct (200 nM) captured on immobilized human EGFR, then CD3 fusion injected (FIG. 18D)
Experimental: as §1, §2

[4] = target: T1, Human EGFR (immobilized on CM5 sensor …); test: SPR; construct (200 nM) captured on immobilized human EGFR, then CD3 fusion injected (FIG. 18C)
Experimental: as §1, §2

human FcγRIIIa-V158 [5] = target: T2, human FcγRIIIa-V158 (human, UniProt P08637 17-208); test: SPR (Biacore T100, 25 °C); receptor captured on anti-Penta His, construct as analyte; kinetic; second value in parentheses, not explained
T2 construct: His-tagged recombinant receptor captured on anti-Penta His antibody in SPR; also called huFcγRIIIa-V158-K6H6; HuFcγRIIIa-V158-K6H6; not shown: K6H6 tag, named only by this short form
Experimental: (§3) For analyzing interaction of different Fc-variants with human FcγRIIIa-V158 and murine FcγRIV direct coupling of around 6,500 resonance units (RU) of the anti-Penta His antibody (Qiagen) is performed on a CM5 chip at pH 5.0 using the standard amine coupling kit (Biacore, Freiburg/Germany). HuFcγRIIIa-V158-K6H6 and muFcγRIV-aviHis-biotin are captured for 60 s at 4 and 10 nM respectively.
(§4) Constructs with different Fc-mutations are passed through the flow cells for 120 s at a concentration of 1000 nM with a flow rate of 30 µl/min. The dissociation is monitored for 220 s. Bulk refractive index differences are corrected for by subtracting the response obtained in a reference flow cell. Here, the Fc-variants are flown over a surface with immobilized anti-Penta His antibody but on which HBS-EP has been injected rather than HuFcγRIIIa-V158-K6H6 or muFcγRIV-aviHis-biotin. Affinity for human FcγRIIIa-V158 and murine FcγRIV was determined for wild-type Fc using a concentration range from 500 - 4000 nM.
(§5) The steady state response was used to derive the dissociation constant KD by non-linear curve fitting of the Langmuir binding isotherm. Kinetic constants were derived using the Biacore T100 Evaluation Software (vAA, Biacore AB, Uppsala/Sweden), to fit rate equations for 1:1 Langmuir binding by numerical integration.

murine FcγRIV [6] = target: T3, murine FcγRIV (murine); test: SPR (Biacore T100, 25 °C); receptor captured on anti-Penta His, construct as analyte; kinetic
T3 construct: Captured on anti-Penta His antibody in SPR; also called muFcγRIV-aviHis-biotin
Experimental: as §3, §4, §5

human FcγRIIIa-V158 [7] = target: T2, human FcγRIIIa-V158; test: SPR (Biacore T100, 25 °C); receptor captured on anti-Penta His, construct as analyte 500 - 4000 nM; steady state
Experimental: as §3, §4, §5

murine FcγRIV [8] = target: T3, murine FcγRIV; test: as above
Experimental: as §3, §4, §5

human FcγRIIIa-V158 [9] = target: T2, human FcγRIIIa-V158; test: SPR (Biacore T100, 25 °C); His-tagged receptor captured on anti-Penta His, construct as analyte; kinetic 1:1 fit, one concentration (1000 nM)
Experimental: as §3, §4, §5

T2 sequence (P08637 17-208 F176V): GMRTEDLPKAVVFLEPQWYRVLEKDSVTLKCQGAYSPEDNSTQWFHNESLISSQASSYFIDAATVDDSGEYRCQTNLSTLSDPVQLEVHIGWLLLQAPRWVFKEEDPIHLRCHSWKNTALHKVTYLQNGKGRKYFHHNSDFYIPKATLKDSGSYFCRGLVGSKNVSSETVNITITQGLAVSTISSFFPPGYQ
T3 sequence (A0A0B4J1G0 21-203): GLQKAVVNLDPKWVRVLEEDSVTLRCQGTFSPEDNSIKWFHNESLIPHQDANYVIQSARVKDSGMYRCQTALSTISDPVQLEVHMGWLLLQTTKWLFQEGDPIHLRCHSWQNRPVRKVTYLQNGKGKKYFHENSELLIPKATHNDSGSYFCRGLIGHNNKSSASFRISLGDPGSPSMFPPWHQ

B1: “2+1 IgG scFab, P329G LALA” (anti-EGFR/anti-huCD3) (bispecific antibody)
heavy 1: not shown
heavy 2: QVQLVQSGAEVKKPGSSVKVSCKASGFTFTDYKIHWVRQAPGQGLEWMGYFNPNSGYSTYAQKFQGRVTITADKSTSTAYMELSSLRSEDTAVYYCARLSPGGYYVMDAWGQGTTVTVSSASTKGPSVFPLAPSSKSTSGGTAALGCLVKDYFPEPVTVSWNSGALTSGVHTFPAVLQSSGLYSLSSVVTVPSSSLGTQTYICNVNHKPSNTKVDKKVEPKSCDKTHTCPPCPAPEAAGGPSVFLFPPKPKDTLMISRTPEVTCVVVDVSHEDPEVKFNWYVDGVEVHNAKTKPREEQYNSTYRVVSVLTVLHQDWLNGKEYKCKVSNKALGAPIEKTISKAKGQPREPQVCTLPPSRDELTKNQVSLSCAVKGFYPSDIAVEWESNGQPENNYKTTPPVLDSDGSFFLVSKLTVDKSRWQQGNVFSCSVMHEALHNHYTQKSLSLSPGK
light: DIQMTQSPSSLSASVGDRVTITCRASQGINNYLNWYQQKPGKAPKRLIYNTNNLQTGVPSRFSGSGSGTEFTLTISSLQPEDFATYYCLQHNSFPTFGQGTKLEIKRTVAAPSVFIFPPSDEQLKSGTASVVCLLNNFYPREAKVQWKVDNALQSGNSQESVTEQDSKDSTYSLSSTLTLSKADYEKHKVYACEVTHQGLSSPVTKSFNRGEC
B1: binds [1].

B2: “1+1 IgG scFab, one armed” (anti-EGFR/anti-huCD3) (bispecific antibody)
heavy 1: not shown
heavy 2: QVQLVQSGAEVKKPGSSVKVSCKASGFTFTDYKIHWVRQAPGQGLEWMGYFNPNSGYSTYAQKFQGRVTITADKSTSTAYMELSSLRSEDTAVYYCARLSPGGYYVMDAWGQGTTVTVSSASTKGPSVFPLAPSSKSTSGGTAALGCLVKDYFPEPVTVSWNSGALTSGVHTFPAVLQSSGLYSLSSVVTVPSSSLGTQTYICNVNHKPSNTKVDKKVEPKSCDKTHTCPPCPAPEAAGGPSVFLFPPKPKDTLMISRTPEVTCVVVDVSHEDPEVKFNWYVDGVEVHNAKTKPREEQYNSTYRVVSVLTVLHQDWLNGKEYKCKVSNKALGAPIEKTISKAKGQPREPQVCTLPPSRDELTKNQVSLSCAVKGFYPSDIAVEWESNGQPENNYKTTPPVLDSDGSFFLVSKLTVDKSRWQQGNVFSCSVMHEALHNHYTQKSLSLSPGK
light: DIQMTQSPSSLSASVGDRVTITCRASQGINNYLNWYQQKPGKAPKRLIYNTNNLQTGVPSRFSGSGSGTEFTLTISSLQPEDFATYYCLQHNSFPTFGQGTKLEIKRTVAAPSVFIFPPSDEQLKSGTASVVCLLNNFYPREAKVQWKVDNALQSGNSQESVTEQDSKDSTYSLSSTLTLSKADYEKHKVYACEVTHQGLSSPVTKSFNRGEC
B2: binds [2].

B3: “1+1 IgG scFab” (anti-EGFR/anti-huCD3) (bispecific antibody)
heavy: not shown
chain: DKTHTCPPCPAPEAAGGPSVFLFPPKPKDTLMISRTPEVTCVVVDVSHEDPEVKFNWYVDGVEVHNAKTKPREEQYNSTYRVVSVLTVLHQDWLNGKEYKCKVSNKALGAPIEKTISKAKGQPREPQVCTLPPSRDELTKNQVSLSCAVKGFYPSDIAVEWESNGQPENNYKTTPPVLDSDGSFFLVSKLTVDKSRWQQGNVFSCSVMHEALHNHYTQKSLSLSPGK
light: DIQMTQSPSSLSASVGDRVTITCRASQGINNYLNWYQQKPGKAPKRLIYNTNNLQTGVPSRFSGSGSGTEFTLTISSLQPEDFATYYCLQHNSFPTFGQGTKLEIKRTVAAPSVFIFPPSDEQLKSGTASVVCLLNNFYPREAKVQWKVDNALQSGNSQESVTEQDSKDSTYSLSSTLTLSKADYEKHKVYACEVTHQGLSSPVTKSFNRGEC
B3: binds [3].

B4: “1+1 IgG scFab, one armed inverted” (anti-EGFR/anti-huCD3) (bispecific antibody)
heavy 1: not shown
heavy 2: EVQLVESGGGLVQPGGSLRLSCAASGYSFTGYTMNWVRQAPGKGLEWVALINPYKGVSTYNQKFKDRFTISVDKSKNTAYLQMNSLRAEDTAVYYCARSGYYGDSDWYFDVWGQGTLVTVSSASTKGPSVFPLAPSSKSTSGGTAALGCLVKDYFPEPVTVSWNSGALTSGVHTFPAVLQSSGLYSLSSVVTVPSSSLGTQTYICNVNHKPSNTKVDKKVEPKSCDKTHTCPPCPAPEAAGGPSVFLFPPKPKDTLMISRTPEVTCVVVDVSHEDPEVKFNWYVDGVEVHNAKTKPREEQYNSTYRVVSVLTVLHQDWLNGKEYKCKVSNKALGAPIEKTISKAKGQPREPQVCTLPPSRDELTKNQVSLSCAVKGFYPSDIAVEWESNGQPENNYKTTPPVLDSDGSFFLVSKLTVDKSRWQQGNVFSCSVMHEALHNHYTQKSLSLSPGK
light: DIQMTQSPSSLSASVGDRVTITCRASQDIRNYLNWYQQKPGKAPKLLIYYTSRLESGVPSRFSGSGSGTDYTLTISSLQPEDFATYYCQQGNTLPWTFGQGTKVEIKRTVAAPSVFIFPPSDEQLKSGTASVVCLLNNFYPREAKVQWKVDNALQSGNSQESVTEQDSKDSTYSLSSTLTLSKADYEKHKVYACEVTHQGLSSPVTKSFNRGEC
B4: binds [4].

B5: “2+1 IgG scFab, wt” (anti-MCSP/anti-huCD3) (bispecific antibody)
heavy 1: not shown
heavy 2: not shown
light: DIVLTQSPSSLSASLGDRVTISCSASQGIRNYLNWYQQRPDGTVKLLIYYTSSLHSGVPSRFSGSGSGTDYSLTISNLEPEDIATYYCQQYSKLPWTFGGGTKLEIKRTVAAPSVFIFPPSDEQLKSGTASVVCLLNNFYPREAKVQWKVDNALQSGNSQESVTEQDSKDSTYSLSSTLTLSKADYEKHKVYACEVTHQGLSSPVTKSFNRGEC
notes: LC007 (MCSP, two Fabs) x V9 (CD3, one scFab); wild-type Fc domain with knob/hole; also called Fc-wt
B5 showed a Kd (human FcγRIIIa-V158 [5]) of 1200 nM, a Kd (murine FcγRIV [6]) of 576 nM and a Kd (human FcγRIIIa-V158 [7]) of 3.47 µM. The Kd (murine FcγRIV [8]) was 1500 nM and the Kd (human FcγRIIIa-V158 [9]) was 600 nM.
